Assay results from paper PMC5292422, “NBS-LRR Protein Pik-H4 Interacts with OsBIHD1 to Balance Rice Blast Resistance and Growth by Coordinating Ethylene-Brassinosteroid Pathway”.

Target: T1, OsBIHD1 207-527 (HD domain) (Oryza sativa (rice; Pik-H4 NIL?), UniProt Q6QUW0 207-527)
T1 sequence: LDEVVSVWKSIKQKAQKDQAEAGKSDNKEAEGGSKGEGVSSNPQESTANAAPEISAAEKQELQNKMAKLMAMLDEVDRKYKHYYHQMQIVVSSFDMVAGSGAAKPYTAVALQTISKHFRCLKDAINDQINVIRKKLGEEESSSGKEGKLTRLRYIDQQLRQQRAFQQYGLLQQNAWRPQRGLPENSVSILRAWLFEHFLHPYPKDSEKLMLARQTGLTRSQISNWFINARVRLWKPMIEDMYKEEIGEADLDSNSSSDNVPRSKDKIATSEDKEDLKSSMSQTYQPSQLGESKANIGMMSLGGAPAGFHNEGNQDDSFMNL
Experiment: EMSA; EMSA: 25 C, 30 min, binding buffer of Beyotime Chemiluminescent EMSA Kit GS009 (composition, salt and pH not stated); 10% polyacrylamide gel, 0.5x TBE
Details: protein: recombinant; tags: His (pET28a); label: biotin 3'

B1: OsACO3 promoter TGTCA probe (dsDNA)
DNA 1: AAATTCTGTCATCATCA
DNA 2: TGATGATGACAGAATTT
- binding result: binds

B2: CYP734A2 promoter TGTCA probe (dsDNA)
DNA 1: TGCATTGTCAGTTAC
DNA 2: GTAACTGACAATGCA
- binding result: binds
